Results on one molecule are retold here after paper PMC8749442 (iScience, 2021).

The series “cryo-EM structure” concerns the molecule itself. The experiment in a line: cryo-EM structure.
Series [1] addresses GroEL (wild-type bacterial chaperonin) (UniProt P0A6F5 1-548). The experiment in a line: cryo-EM structure.

Sequence of GroEL (wild-type bacterial chaperonin) (P0A6F5 whole entry): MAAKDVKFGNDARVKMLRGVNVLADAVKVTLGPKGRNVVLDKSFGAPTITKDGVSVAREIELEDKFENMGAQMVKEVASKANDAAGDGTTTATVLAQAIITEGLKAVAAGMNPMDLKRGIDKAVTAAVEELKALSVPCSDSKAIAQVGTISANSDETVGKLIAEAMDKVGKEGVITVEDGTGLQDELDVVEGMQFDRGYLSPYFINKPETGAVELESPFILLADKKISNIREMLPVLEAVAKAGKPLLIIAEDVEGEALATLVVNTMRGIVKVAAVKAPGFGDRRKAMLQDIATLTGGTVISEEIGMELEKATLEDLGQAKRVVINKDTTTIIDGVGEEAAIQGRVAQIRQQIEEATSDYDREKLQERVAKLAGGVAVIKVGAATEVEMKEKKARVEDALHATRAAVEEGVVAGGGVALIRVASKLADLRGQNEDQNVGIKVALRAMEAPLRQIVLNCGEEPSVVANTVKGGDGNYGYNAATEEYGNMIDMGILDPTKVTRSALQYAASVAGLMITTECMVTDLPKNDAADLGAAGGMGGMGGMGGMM

B1: GroES (co-chaperone of GroEL) (natural protein)
chain: MNIRPLHDRVIVKRKEVETKSAGGIVLTGSAAAKSTRGEVLAVGNGRILENGEVKPLDVKVGDIVIFNDGYGVKSEKIDNEEVLIMSESDILAIVEA
As to B1, the binding result (in the series “cryo-EM structure”; in series [1]) was “binds” in each case.
